# Source: the RNAGym collection of RNA variant scans (doi:10.1093/nar/gkz1192)
# B1: CPEB3 Ribozyme (parent)
# chain: UAACAGGGGGCCACAGCAGAAGCGUUCACGUCGCAGCCCCUGUCAGAUUCUGGUGAAUCUGCGAAUUCUGCUGUAUAUCUC
# Variants of: B1
# Assay: self-cleavage, relative activity (ratio to wild type); higher = more cleavage; in vitro, sequencing
# Outline: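 Relative activity compares each variant's cleaved/total read fraction with that of the unmutated ribozyme. To get these fractions, barcoded CPEB3 ribozyme libraries from rounds of error-prone PCR were transcribed with T7 RNA polymerase for 5 hours at 37°C and then given 15 min of DNase I treatment before EDTA was added. The RNAs were reverse transcribed with template switching and sequenced on Illumina, and DNA sequencing linked barcodes to variants. A minimum of 5 reads applied, and three batches were averaged.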
row,Variant,self-cleavage
1,UAACAGGGGGCCACAGCAGAAGCGUUCACGUCGCGGCCCUUGUCAGAUUCUGGUGAAUCUGCGAAUUCUGCUGUAUAUCUC [A35G C40U],1.23
2,UAACAGGGGGCCACAGCAGAAGCGUUCACGUCGCGGCCCCUGUCAGAUUUUGGUGAAUCUGCGAAUUCUGCUGUAUAUCUC [A35G C50U],1.35
3,UAACAGGGGGCCACAGCAGAAGCGUUCACGUCGCGGCCCCUGUCAGAUUAUGGUGAAUCUGCGAAUUCUGCUGUAUAUCUC [A35G C50A],1.1
4,UAACAGGGGGCCACAGCAGAAGCGUUCACGUCGCGGCCCCUGUCAGAUUCAGGUGAAUCUGCGAAUUCUGCUGUAUAUCUC [A35G U51A],1.32
5,UAACAGGGGGCCACAGCAGAAGCGUUCACGUCGCGGCCCCUGUCAGAUUCCGGUGAAUCUGCGAAUUCUGCUGUAUAUCUC [A35G U51C],1.27
6,UAACAGGGGGCCACAGCAGAAGCGUUCACGUCGCGGCCCCUGUCAGAUUCGGGUGAAUCUGCGAAUUCUGCUGUAUAUCUC [A35G U51G],1.28
7,UAACAGGGGGCCACAGCAGAAGCGUUCACGUCGCGGCCCCUGCCAGAUUCUGGUGAAUCUGCGAAUUCUGCUGUAUAUCUC [A35G U43C],1.22
8,UAACAGGGGGCCACAGCAGAAGCGUUCACGUCGCGGCCCCUGACAGAUUCUGGUGAAUCUGCGAAUUCUGCUGUAUAUCUC [A35G U43A],1.28
9,UAACAGGGGGCCACAGCAGAAGCGUUCACGUCGCGGCCCCUGGCAGAUUCUGGUGAAUCUGCGAAUUCUGCUGUAUAUCUC [A35G U43G],0.36
10,UAACAGGGGGCCACAGCAGAAGCGUUCACGUCGCGGCCCCAGUCAGAUUCUGGUGAAUCUGCGAAUUCUGCUGUAUAUCUC [A35G U41A],0.44
11,UAACAGGGGGCCACAGCAGAAGCGUUCACGUCGCGGCCCCCGUCAGAUUCUGGUGAAUCUGCGAAUUCUGCUGUAUAUCUC [A35G U41C],1.23
12,UAACAGGGGGCCACAGCAGAAGCGUUCACGUCGCGGCCCCGGUCAGAUUCUGGUGAAUCUGCGAAUUCUGCUGUAUAUCUC [A35G U41G],0.33
13,UAACAGGGGGCCACAGCAGAAGCGUUCACGUCGCGACCCCUGUCAGAUUCUGGUGAAUCUGCGAAUUCUGCUGUAUAUCUC [A35G G36A],0.92
14,UAACAGGGGGCCACAGCAGAAGCGUUCACGUCGCGCCCCCUGUCAGAUUCUGGUGAAUCUGCGAAUUCUGCUGUAUAUCUC [A35G G36C],0.29
15,UAACAGGGGGCCACAGCAGAAGCGUUCACGUCGCGUCCCCUGUCAGAUUCUGGUGAAUCUGCGAAUUCUGCUGUAUAUCUC [A35G G36U],0.5
16,UAACAGGGGGCCACAGCAGAAGCGUUCACGUCGCGGCCCCUGUCAGAUUCUGGUCAAUCUGCGAAUUCUGCUGUAUAUCUC [A35G G55C],1.46
17,UAACAGGGGGCCACAGCAGAAGCGUUCACGUCGCGGCCCCUGUCAGAUUCUGGUAAAUCUGCGAAUUCUGCUGUAUAUCUC [A35G G55A],1.23
18,UAACAGGGGGCCACAGCAGAAGCGUUCACGUCGCGGCCCCUGUCAGAUUCUGGUGAAUCUGCGAAUUCUGCUGUAUAUUUC [A35G C79U],1.51
19,UAACAGGGGGCCACAGCAGAAGCGUUCACGUCGCGGCCCCUGUCAGAUUCUGGUGAAUCUGCGAAUUCUGCUGUAUAUAUC [A35G C79A],1.3
20,UAACAGGGGGCCACAGCAGAAGCGUUCACGUCGCGGCCCCUGUCAGAUUCUGGUGAAUUUGCGAAUUCUGCUGUAUAUCUC [A35G C59U],1.2
21,UAACAGGGGGCCACAGCAGAAGCGUUCACGUCGCGGCCCCUGUCAGACUCUGGUGAAUCUGCGAAUUCUGCUGUAUAUCUC [A35G U48C],1.21
22,UAACAGGGGGCCACAGCAGAAGCGUUCACGUCGCGGCCCCUGUCAGAAUCUGGUGAAUCUGCGAAUUCUGCUGUAUAUCUC [A35G U48A],1.14
23,UAACAGGGGGCCACAGCAGAAGCGUUCACGUCGCGGCCCCUGUCAGAUUCUGGGGAAUCUGCGAAUUCUGCUGUAUAUCUC [A35G U54G],1.32

row,Variant,self-cleavage
1,UAACAGGGGGCCACAGCAGAAGCGUUCACGUCGCGGCCCCUGUCAGAUUCUGGAGAAUCUGCGAAUUCUGCUGUAUAUCUC [A35G U54A],1.28
2,UAACAGGGGGCCACAGCAGAAGCGUUCACGUCGCGGCCCCUGUCAGAUUCUGGCGAAUCUGCGAAUUCUGCUGUAUAUCUC [A35G U54C],1.29
3,UAACAGGGGGCCACAGCAGAAGCGUUCACGUCGCGGCCCCUGUCAGAUUCUGGUGAAUCUGCGAAUACUGCUGUAUAUCUC [A35G U67A],1.2
4,UAACAGGGGGCCACAGCAGAAGCGUUCACGUCGCGGCCCCUGUCAGAUUCUGGUGAAUCUGCGAAUCCUGCUGUAUAUCUC [A35G U67C],0.56
5,UAACAGGGGGCCACAGCAGAAGCGUUCACGUCGCGGCCCCUGUCAGAUUCUGGUGAAUCUGCGAAUGCUGCUGUAUAUCUC [A35G U67G],1.11
6,UAACAGGGGGCCACAGCAGAAGCGUUCACGUCGCGGCCCCUCUCAGAUUCUGGUGAAUCUGCGAAUUCUGCUGUAUAUCUC [A35G G42C],0.16
7,UAACAGGGGGCCACAGCAGAAGCGUUCACGUCGCGGCCCCUAUCAGAUUCUGGUGAAUCUGCGAAUUCUGCUGUAUAUCUC [A35G G42A],0.5
8,UAACAGGGGGCCACAGCAGAAGCGUUCACGUCGCGGCCCCUGUCAGAUUCUGGUGAAUCUGCGAAUUCUUCUGUAUAUCUC [A35G G70U],0.78
9,UAACAGGGGGCCACAGCAGAAGCGUUCACGUCGCGGCCCCUGUCAGAUUCUGGUGAAUCUGCGAAUUCUACUGUAUAUCUC [A35G G70A],1.13
10,UAACAGGGGGCCACAGCAGAAGCGUUCACGUCGCGGCCCCUGUCAGAUUCUGGUGAAGCUGCGAAUUCUGCUGUAUAUCUC [A35G U58G],1.09
11,UAACAGGGGGCCACAGCAGAAGCGUUCACGUCGCGGCCCCUGUCAGAUUCUGGUGAACCUGCGAAUUCUGCUGUAUAUCUC [A35G U58C],1.23
12,UAACAGGGGGCCACAGCAGAAGCGUUCACGUCGCGGCCCCUGUCAGAUUCUGGUGAAACUGCGAAUUCUGCUGUAUAUCUC [A35G U58A],1.07
13,UAACAGGGGGCCACAGCAGAAGCGUUCACGUCGCGGCCCCUGUCAGAUUCUGGUGAAUCUGCGAAUUAUGCUGUAUAUCUC [A35G C68A],1.19
14,UAACAGGGGGCCACAGCAGAAGCGUUCACGUCGCGGCCCCUGUCAGAUUCUGGUGAAUCUACGAAUUCUGCUGUAUAUCUC [A35G G61A],1.11
15,UAACAGGGGGCCACAGCAGAAGCGUUCACGUCGCGGCCCCUGUCAGAUUCUGGUGAAUCUUCGAAUUCUGCUGUAUAUCUC [A35G G61U],1.23
16,UAACAGGGGGCCACAGCAGAAGCGUUCACGUCGCGGCCCCUGUCAGAUUCUGGUGAAUCCGCGAAUUCUGCUGUAUAUCUC [A35G U60C],1.03
17,UAACAGGGGGCCACAGCAGAAGCGUUCACGUCGCGGCCCCUGUCAGAUUCUGGUGAAUCAGCGAAUUCUGCUGUAUAUCUC [A35G U60A],1.14
18,UAACAGGGGGCCACAGCAGAAGCGUUCACGUCGCGGCCCCUGUCAGAUUCUGGUGAAUCGGCGAAUUCUGCUGUAUAUCUC [A35G U60G],1.04
19,UAACAGGGGGCCACAGCAGAAGCGUUCACGUCGCGGCCCCUGUCAGAUUCUGGUGAAUCUGCGAACUCUGCUGUAUAUCUC [A35G U66C],1.17
20,UAACAGGGGGCCACAGCAGAAGCGUUCACGUCGCGGCCCCUGUCAGAUUCUGGUGAAUCUGCGAAAUCUGCUGUAUAUCUC [A35G U66A],1.34
21,UAACAGGGGGCCACAGCAGAAGCGUUCACGUCGCGGCCCCUGUCAGAUUCUGGUGAAUCUGCGAAGUCUGCUGUAUAUCUC [A35G U66G],1.26
22,UAACAGGGGGCCACAGCAGAAGCGUUCACGUCGCGGCCCCUGUCACAUUCUGGUGAAUCUGCGAAUUCUGCUGUAUAUCUC [A35G G46C],1.12
23,UAACAGGGGGCCACAGCAGAAGCGUUCACGUCGCGGCCCCUGUCAAAUUCUGGUGAAUCUGCGAAUUCUGCUGUAUAUCUC [A35G G46A],0.96

row,Variant,self-cleavage
1,UAACAGGGGGCCACAGCAGAAGCGUUCACGUCGCGGCCCCUGUCAGAUUCUGGUGAAUCUGCGAAUUCUGCGGUAUAUCUC [A35G U72G],1.29
2,UAACAGGGGGCCACAGCAGAAGCGUUCACGUCGCGGCCCCUGUCAGAUUCUGGUGAAUCUGCGAAUUCUGCCGUAUAUCUC [A35G U72C],1.26
3,UAACAGGGGGCCACAGCAGAAGCGUUCACGUCGCGGCCCCUGUCAGAUUCUGGUGAAUCUGCGAAUUCUGCAGUAUAUCUC [A35G U72A],1.22
4,UAACAGGGGGCCACAGCAGAAGCGUUCACGUCGCGGCCCCUGUCAGAUCCUGGUGAAUCUGCGAAUUCUGCUGUAUAUCUC [A35G U49C],1.05
5,UAACAGGGGGCCACAGCAGAAGCGUUCACGUCGCGGCCCCUGUCAGAUACUGGUGAAUCUGCGAAUUCUGCUGUAUAUCUC [A35G U49A],1.23
6,UAACAGGGGGCCACAGCAGAAGCGUUCACGUCGCGGCCCCUGUCAGAUUCUGAUGAAUCUGCGAAUUCUGCUGUAUAUCUC [A35G G53A],1.33
7,UAACAGGGGGCCACAGCAGAAGCGUUCACGUCGCGGCCCCUGUCAGAUUCUGUUGAAUCUGCGAAUUCUGCUGUAUAUCUC [A35G G53U],1.27
8,UAACAGGGGGCCACAGCAGAAGCGUUCACGUCGCGGCCCCUGUCAGAUUCUGGUGAAUCUGCGAAUUCGGCUGUAUAUCUC [A35G U69G],1.33
9,UAACAGGGGGCCACAGCAGAAGCGUUCACGUCGCGGCCCCUGUCAGAUUCUGGUGAAUCUGCGAAUUCCGCUGUAUAUCUC [A35G U69C],1.2
10,UAACAGGGGGCCACAGCAGAAGCGUUCACGUCGCGGCCCCUGUCAGAUUCUGGUGAAUCUGCGAAUUCAGCUGUAUAUCUC [A35G U69A],1.22
11,UAACAGGGGGCCACAGCAGAAGCGUUCACGUCGCGGCCCCUGUCAGAUUCUGGUGAAUCUGCGAAUUCUGCUAUAUAUCUC [A35G G73A],1.46
12,UAACAGGGGGCCACAGCAGAAGCGUUCACGUCGCGGCCCCUGUCAGAUUCUGGUGAAUCUGGGAAUUCUGCUGUAUAUCUC [A35G C62G],0.51
13,UAACAGGGGGCCACAGCAGAAGCGUUCACGUCGCGGCCCCUGUCAGAUUCUGGUGAAUCUGUGAAUUCUGCUGUAUAUCUC [A35G C62U],0.34
14,UAACAGGGGGCCACAGCAGAAGCGUUCACGUCGCGGCCCCUGUCAGAUUCUGGUGAAUCUGAGAAUUCUGCUGUAUAUCUC [A35G C62A],0.52
15,UAACAGGGGGCCACAGCAGAAGCGUUCACGUCGCGGCCCCUGUCAGAUUCUAGUGAAUCUGCGAAUUCUGCUGUAUAUCUC [A35G G52A],1.36
16,UAACAGGGGGCCACAGCAGAAGCGUUCACGUCGCGGCCCCUGUCAGAUUCUUGUGAAUCUGCGAAUUCUGCUGUAUAUCUC [A35G G52U],1.36
17,UAACAGGGGGCCACAGCAGAAGCGUUCACGUCGCGGCCCCUGUCAGAUUCUCGUGAAUCUGCGAAUUCUGCUGUAUAUCUC [A35G G52C],1.27
18,UAACAGGGGGCCACAGCAGAAGCGUUCACGUCGCGGCCCCUGUCAGAUUCUGGUGAAUCUGCCAAUUCUGCUGUAUAUCUC [A35G G63C],1.27
19,UAACAGGGGGCCACAGCAGAAGCGUUCACGUCGCGGCCCCUGUCAGAUUCUGGUGAAUCUGCAAAUUCUGCUGUAUAUCUC [A35G G63A],1.29
20,UAACAGGGGGCCACAGCAGAAGCGUUCACGUCGCGGCCCCUGUCAGAUUCUGGUGAAUCUGCUAAUUCUGCUGUAUAUCUC [A35G G63U],1.2
21,UAACAGGGGGCCACAGCAGAAGCGUUCACGUCGCGGCCCCUGUCAGAUUCUGGUGAAUCUGCGAAUUCUGCUGUAUAUCUU [A35G C81U],1.29
22,UAACAGGGGGCCACAGCAGAAGCGUUCACGUCGCGGCCCCUGUCAGAUUCUGGUGAAUCUGCGAAUUCUGCUGUAUAUCUA [A35G C81A],1.3
